The text below walks through data of the supplement of paper PMC7877785.

± gives the uncertainty stated by the source.

The series can be described thus: self-splicing fitness, log relative to wild type (ln ratio); higher = more splicing; Tetrahymena group I intron in knt gene, E. coli kanamycin selection, DiMSum; sequences stand for … in CUCUCU…GGAGGGAAAAGUUAUCAGGCAUGCACCUGGUAGCUAGUCUUUAAACCAAUAGAUUGCAUCGGUUUAAAAGGCAAGACCGUCAAAUUGCGGGAAAGGGGUCAACAGCCGUUCAGUACCAAGUCUCAGGGGAAACUUUGAGAUGGCCUUGCAAAGGGUAUGGUAAUAAGCUGACGGACAUGGUCCUAACCACGCAGCCAAGUCCUAAGUCAACAGAUCUUCUGUUGAUAUGGAUGCAGUUCACAGACUAAAUGUCGGUCGGGGAAGAUGUAUUCUUCUCAUAAGAUAUAGUCGGACCUCUCCUUAAUGGGAGCUAGCGGAUGAAGUGAUGCAACACUGGAGCCGCUGGGAACUAAUUUGUAUGCGAAAGUAUAUUGAUUAGUUUUGGAGUACUCGUGGUCG
A digest of the protocol:
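Fitness was computed with DiMSum as the error-weighted combination of replicate fold changes, kanamycin versus none, each normalised to wild type. The library randomised all eight intron nucleotides of the P1ex region, with the intron placed in the knt kanamycin-resistance gene on pET-22b(+) in E. coli BL21(DE3). Six replicate transformations were grown overnight at 37°C or 30°C on LB agar with or without 25 μg/mL kanamycin, plus 100 μg/mL carbenicillin, 50 μM IPTG and 0.2% rhamnose. Pooled colonies were amplicon-sequenced on an Illumina HiSeq 2500.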

For the sequence UGUAAGCAAUAUUACGAAAU, the “self-splicing fitness (ln)” value reads like this: (30 °C) -2.47 ± 0.18; (37 °C) -0.0192 ± 0.17.
Take CUACAGCAAUAUUACGAGAG: the “self-splicing fitness (ln)” value by setting is: (30 °C) -2.79 ± 0.16; (37 °C) -2.21 ± 0.18.
In the case of CUCCAGCAAUAUUACGAUUU, the “self-splicing fitness (ln)” value was -3.75 ± 0.2 (30 °C) and -2.08 ± 0.15 (37 °C).
On to UAGCAGCAAUAUUACGGCGU, for which the “self-splicing fitness (ln)” value by setting is: (30 °C) -0.605 ± 0.12; (37 °C) 0.0421 ± 0.13.
In the case of GAAGAGCAAUAUUACGUUGU, the “self-splicing fitness (ln)” value reads like this: (30 °C) -3.56 ± 0.28; (37 °C) -2.83 ± 0.24.
For UGUUAGCAAUAUUACGGGCU, the “self-splicing fitness (ln)” value by setting is: (30 °C) -1.9 ± 0.13; (37 °C) -1.5 ± 0.17.
The corresponding values for UGUAAGCAAUAUUACGGAUC are -1.45 ± 0.18 and -0.457 ± 0.36.
On to UGUAAGCAAUAUUACGUCGA, for which the “self-splicing fitness (ln)” value (30 °C) is -1.42 ± 0.1 and the “self-splicing fitness (ln)” value (37 °C) is -0.213 ± 0.12.
As for UCUUAGCAAUAUUACGUCUG, the “self-splicing fitness (ln)” value (30 °C) is -2.67 ± 0.22 and the “self-splicing fitness (ln)” value (37 °C) was -2.95 ± 0.37.
With CCGUAGCAAUAUUACGGGGU, the “self-splicing fitness (ln)” value by setting is: (30 °C) -3.96 ± 0.24; (37 °C) -1.71 ± 0.2.
For the sequence AGUUAGCAAUAUUACGUAGU, the “self-splicing fitness (ln)” value (30 °C) is -2.77 ± 0.17 and the “self-splicing fitness (ln)” value (37 °C) is -1.94 ± 0.17.
UAUGAGCAAUAUUACGACUU: the “self-splicing fitness (ln)” value (30 °C) was -2.66 ± 0.24.
As to CGAAAGCAAUAUUACGGAGU, the “self-splicing fitness (ln)” value is -3.55 ± 0.19 (30 °C) and -2.42 ± 0.17 (37 °C).
As to CGCCAGCAAUAUUACGAACU, the “self-splicing fitness (ln)” value (37 °C) came to 0.274 ± 0.25.
For the sequence UUGUAGCAAUAUUACGAUAC, the “self-splicing fitness (ln)” value (30 °C) is -1.91 ± 0.22.
Take GCCUAGCAAUAUUACGCGUA: the “self-splicing fitness (ln)” value is -1.89 ± 0.13 (30 °C) and -0.683 ± 0.12 (37 °C).
The corresponding values for GAAUAGCAAUAUUACGGCGU are -0.554 ± 0.15 and 0.178 ± 0.16.
For AAUGAGCAAUAUUACGGUGC, the “self-splicing fitness (ln)” value is, setting by setting: (30 °C) -3.37 ± 0.23; (37 °C) -3.03 ± 0.27.
The corresponding values for GUAAAGCAAUAUUACGAAGA are -1.9 ± 0.1 and -1.03 ± 0.12.
For UAAAAGCAAUAUUACGAAAA, the “self-splicing fitness (ln)” value is -2.94 ± 0.2 (30 °C) and -1.71 ± 0.16 (37 °C).
Turning to CGGGAGCAAUAUUACGUGAA, the “self-splicing fitness (ln)” value (37 °C) was -2.15 ± 0.3.
Consider ACCAAGCAAUAUUACGACCA, for which the “self-splicing fitness (ln)” value is, setting by setting: (30 °C) -1.03 ± 0.081; (37 °C) -1.02 ± 0.1.
Consider CCUCAGCAAUAUUACGGAAG, for which the “self-splicing fitness (ln)” value was -1.05 ± 0.11 (30 °C) and -0.549 ± 0.14 (37 °C).
Consider CGCAAGCAAUAUUACGGUAU, for which the “self-splicing fitness (ln)” value (30 °C) is -4.65 ± 0.19 and the “self-splicing fitness (ln)” value (37 °C) was -2.42 ± 0.13.
In the case of UCACAGCAAUAUUACGCAGC, the “self-splicing fitness (ln)” value is -3.29 ± 0.2 (30 °C) and -2.62 ± 0.25 (37 °C).
For the sequence UACGAGCAAUAUUACGGGAA, the “self-splicing fitness (ln)” value is -1.91 ± 0.2 (30 °C) and -2.85 ± 0.4 (37 °C).
ACAGAGCAAUAUUACGCCCG: the “self-splicing fitness (ln)” value was -3.2 ± 0.21 (30 °C) and -1.63 ± 0.18 (37 °C).
AGAUAGCAAUAUUACGCCUG: the “self-splicing fitness (ln)” value is, setting by setting: (30 °C) -1.13 ± 0.12; (37 °C) -0.496 ± 0.13.
The corresponding values for UUUAAGCAAUAUUACGCAGC are -2.88 ± 0.22 and -0.593 ± 0.2.
For CUAGAGCAAUAUUACGCGCG, the “self-splicing fitness (ln)” value reads like this: (30 °C) -0.479 ± 0.11; (37 °C) 0.603 ± 0.16.
With GCUAAGCAAUAUUACGACCU, the “self-splicing fitness (ln)” value (30 °C) was -0.833 ± 0.1 and the “self-splicing fitness (ln)” value (37 °C) came to 0.599 ± 0.12.
On to UACUAGCAAUAUUACGGUUA, for which the “self-splicing fitness (ln)” value is -0.377 ± 0.1 (30 °C) and 0.35 ± 0.12 (37 °C).
Take UGACAGCAAUAUUACGUCAA: the “self-splicing fitness (ln)” value is, setting by setting: (30 °C) -2.37 ± 0.18; (37 °C) -0.896 ± 0.11.
GAGGAGCAAUAUUACGGAUA: the “self-splicing fitness (ln)” value is, setting by setting: (30 °C) -3.62 ± 0.28; (37 °C) -2.33 ± 0.37.
In the case of AAUUAGCAAUAUUACGAUCA, the “self-splicing fitness (ln)” value is -0.335 ± 0.28 (30 °C) and -0.16 ± 0.22 (37 °C).
As for CUUUAGCAAUAUUACGAUUU, the “self-splicing fitness (ln)” value by setting is: (30 °C) -2.66 ± 0.18; (37 °C) -2.72 ± 0.3.
The corresponding values for AUGGAGCAAUAUUACGGCAA are -0.0716 ± 0.34 and -3.02 ± 0.47.
Turning to UGACAGCAAUAUUACGGACA, the “self-splicing fitness (ln)” value reads like this: (30 °C) -0.474 ± 0.08; (37 °C) 0.431 ± 0.12.
Regarding CGUCAGCAAUAUUACGCAGC, the “self-splicing fitness (ln)” value (30 °C) was -3.34 ± 0.2 and the “self-splicing fitness (ln)” value (37 °C) is -2.26 ± 0.19.
